Measured values: article PMC12736101

Assay: SEC; Superdex 200 10/300 GL, phosphate-buffered saline, 0.5 mL/min, ambient temperature, UV 280 nm; the SEC 'monomer' peak is the native covalent dimer

Sequence of dulaglutide, original reference drug (Trulicity) (chain): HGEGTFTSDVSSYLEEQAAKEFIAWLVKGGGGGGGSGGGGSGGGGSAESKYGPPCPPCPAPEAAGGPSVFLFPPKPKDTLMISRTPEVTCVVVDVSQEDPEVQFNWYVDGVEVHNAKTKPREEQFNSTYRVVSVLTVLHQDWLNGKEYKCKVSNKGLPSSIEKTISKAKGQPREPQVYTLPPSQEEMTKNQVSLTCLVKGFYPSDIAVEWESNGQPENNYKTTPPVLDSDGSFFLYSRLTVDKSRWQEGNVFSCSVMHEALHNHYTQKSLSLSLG

For “dulaglutide, original reference drug (Trulicity)”, the “percent in the SEC 'monomer' peak (the native covalent dimer)” value was 97.5% monomeric form in the Trulicity sample.
